Measurements: paper PMC8600089, “The development of a high-affinity conformation-sensitive antibody mimetic using a biocompatible copolymer carrier (iBody)” (The Journal of Biological Chemistry, 2021)
Starred links: 1 amine or outer side, 2 acyl side, 3 side chain; linkers in the order of their positions; H or OH if unused. Positions of bridges follow the written chain, without caps; N, C: chain ends. Groups on a side chain read outwards from the residue. *: point of attachment. PEG12 = NCCOCCOCCOCCOCCOCCOCCOCCOCCOCCOCCOCCOCCC(=O)O; Biotin = O=C1N[C@H]2[C@H](CS[C@H]2CCCCC(=O)*)N1; TBMB = c1c(C[*:1])cc(C[*:3])cc1C[*:2]

B1: Peptide 1 (compound 1), TBMB-cyclized Ac-CDDECPDYVCGGSGK[PEG12-biotin]-NH2 (peptide)
peptide: Ac-CDDECPDYVCGGSGK([PEG12-Biotin])-NH2
modifications: linker 1-5-10 via TBMB
SMILES: CC(=O)N[C@H]1CSCc2cc3cc(c2)CSC[C@H](NC(=O)[C@H](CCC(=O)O)NC(=O)[C@H](CC(=O)O)NC(=O)[C@H](CC(=O)O)NC1=O)C(=O)N1CCC[C@H]1C(=O)N[C@@H](CC(=O)O)C(=O)N[C@@H](Cc1ccc(O)cc1)C(=O)N[C@@H](C(C)C)C(=O)N[C@H](C(=O)NCC(=O)NCC(=O)N[C@@H](CO)C(=O)NCC(=O)N[C@@H](CCCCNC(=O)CCOCCOCCOCCOCCOCCOCCOCCOCCOCCOCCOCCOCCNC(=O)CCCC[C@@H]1SC[C@@H]2NC(=O)N[C@@H]21)C(N)=O)CSC3
notes: bicyclic peptide selected by phage display against PSMA, with the GGSG spacer and an added lysine; also called the peptide; bicyclic peptide; source: synthetic peptide (SPPS, TBMB cyclization, RP HPLC); not shown: biotin (through a PEG12 linker on the C-terminal lysine), C-terminal, kept
B2: iBody 1, poly(HPMA-co-Ma-β-Ala-compound 2-co-Ma-β-Ala-ATTO488-co-Ma-β-Ala-NH-ED-biotin) (designed binder)
peptide: CDDECPDYVCGGSGK
modifications: not fully specified; N-terminus acetylated; C-terminal amide; three cysteines cyclized with TBMB; lysine side chain carries (CO)CH2CH2(OCH2CH2)5-NH2 (compound 2), through which the peptide is joined to the HPMA copolymer backbone; the polymer also carries ATTO488 (3.0× per polymer) and biotin (11.6× per polymer)
notes: bicyclic Peptide 1 as compound 2, 9.8 copies per polymer (20.4 wt%); Not a polypeptide as a whole: about 9.8 copies of the peptide on a synthetic HPMA copolymer (Mn = 88,100 g/mol, Mw = 104,000 g/mol); also called the iBody; copies: 9.8

Target: T1, recombinant extracellular part of PSMA (construct not named; ELISA and SPR) (human, UniProt Q04609 44-750)
T1 construct: prostate-specific membrane antigen (PSMA), recombinant extracellular part; also called recombinant extracellular domain of PSMA; truncated version of the target enzyme
T1 sequence (Q04609 44-750): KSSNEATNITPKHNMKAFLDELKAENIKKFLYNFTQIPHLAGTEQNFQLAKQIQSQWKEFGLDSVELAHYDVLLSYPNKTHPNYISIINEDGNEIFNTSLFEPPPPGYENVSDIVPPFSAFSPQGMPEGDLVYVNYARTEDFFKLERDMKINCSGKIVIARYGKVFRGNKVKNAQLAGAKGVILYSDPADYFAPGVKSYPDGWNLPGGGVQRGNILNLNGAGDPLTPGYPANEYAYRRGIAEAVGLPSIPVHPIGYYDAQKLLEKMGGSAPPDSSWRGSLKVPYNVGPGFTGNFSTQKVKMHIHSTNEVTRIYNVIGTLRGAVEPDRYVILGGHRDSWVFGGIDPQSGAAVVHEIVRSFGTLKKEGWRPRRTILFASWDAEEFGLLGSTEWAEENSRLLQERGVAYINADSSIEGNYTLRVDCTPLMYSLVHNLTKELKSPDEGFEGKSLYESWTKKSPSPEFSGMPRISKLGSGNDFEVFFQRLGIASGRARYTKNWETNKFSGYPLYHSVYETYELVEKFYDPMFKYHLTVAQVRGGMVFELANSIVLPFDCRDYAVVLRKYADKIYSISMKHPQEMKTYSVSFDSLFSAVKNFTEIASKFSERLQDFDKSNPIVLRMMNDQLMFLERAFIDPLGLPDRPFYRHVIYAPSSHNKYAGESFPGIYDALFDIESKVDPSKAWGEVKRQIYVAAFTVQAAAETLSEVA
Settings: both partners purified

Binder | EC50 [nM]
B1 | > 5000
B2 | 2
